This assay deals with T1, CD58 Full ECD (human, UniProt P19256 30-215).
T1 construct: Recombinant, made in HEK293 cells
T1 sequence: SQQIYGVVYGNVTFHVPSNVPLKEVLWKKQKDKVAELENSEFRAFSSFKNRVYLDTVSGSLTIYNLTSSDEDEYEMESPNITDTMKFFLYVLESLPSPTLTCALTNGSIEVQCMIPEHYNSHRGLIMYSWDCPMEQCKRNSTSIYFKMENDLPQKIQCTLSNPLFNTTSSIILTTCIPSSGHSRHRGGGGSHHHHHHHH
In words: isothermal titration calorimetry; 100 uM CD2 titrated into 10 uM CD58 variant in HBS. As to the method: To ensure the binding affinity remained uncompromised by the additional of the stabilizing disulfide variance, isothermal calorimetry (ITC) was performed on the resulting recombinant CD58 proteins to determine their apparent KD and binding stoicheometry (n) to recombinant human CD2.
Briefly, recombinant human CD2 and recombinant human CD58 variants were dialyzed into HEPES-buffered saline (HBS). CD2 was diluted to final concentration of 100 μM, CD58 variants were diluted to 10 μM. CD2 was titrated into 10 μM of CD58 variants via multiple injections and ΔH (kcal/mole) determined using a MicroCal VP-ITC isothermal titration calorimeter (Malvern). Titrations of CD2 into HBS were used as a reference and KD and n determined from the resulting data.
On the technique in general: Isothermal titration calorimetry measures the heat released or taken up as one component is titrated into another.

Broadly, the Kd is a measure of binding affinity in units of concentration. Higher therefore signals lower affinity.

B1: Human CD2 (receptor)
chain: KEITNALETWGALGQDINLDIPSFQMSDDIDDIKWEKTSDKKKIAQFRKEKETFKEKDTYKLFKNGTLKIKHLKTDDQDIYKVSIYDTKGKNVLEKIFDLKIQERVSKPKISWTCINTTLTCEVMNGTDPELNLYQDGKHLKLSQRVITHKWTTSLSAKFKCTAGNKVSKESSVEPVSCPEKGLD
notes: also called recombinant human CD2; CD2 extracellular domain
B1 yielded a dissociation constant Kd of 570 nM.
